Test results reported in IntAct's records for PubMed 31515488.

B1: Tripartite motif-containing protein 10 (Homo sapiens), Q9UDY6 (parent)
chain: MASAASVTSLADEVNCPICQGTLREPVTIDCGHNFCRACLTRYCEIPGPDLEESPTCPLCKEPFRPGSFRPNWQLANVVENIERLQLVSTLGLGEEDVCQEHGEKIYFFCEDDEMQLCVVCREAGEHATHTMRFLEDAAAPYREQIHKCLKCLRKEREEIQEIQSRENKRMQVLLTQVSTKRQQVISEFAHLRKFLEEQQSILLAQLESQDGDILRQRDEFDLLVAGEICRFSALIEELEEKNERPARELLTDIRSTLIRCETRKCRKPVAVSPELGQRIRDFPQQALPLQREMKMFLEKLCFELDYEPAHISLDPQTSHPKLLLSEDHQRAQFSYKWQNSPDNPQRFDRATCVLAHTGITGGRHTWVVSIDLAHGGSCTVGVVSEDVQRKGELRLRPEEGVWAVRLAWGFVSALGSFPTRLTLKEQPRQVRVSLDYEVGWVTFTNAVTREPIYTFTASFTRKVIPFFGLWGRGSSFSLSS
partner: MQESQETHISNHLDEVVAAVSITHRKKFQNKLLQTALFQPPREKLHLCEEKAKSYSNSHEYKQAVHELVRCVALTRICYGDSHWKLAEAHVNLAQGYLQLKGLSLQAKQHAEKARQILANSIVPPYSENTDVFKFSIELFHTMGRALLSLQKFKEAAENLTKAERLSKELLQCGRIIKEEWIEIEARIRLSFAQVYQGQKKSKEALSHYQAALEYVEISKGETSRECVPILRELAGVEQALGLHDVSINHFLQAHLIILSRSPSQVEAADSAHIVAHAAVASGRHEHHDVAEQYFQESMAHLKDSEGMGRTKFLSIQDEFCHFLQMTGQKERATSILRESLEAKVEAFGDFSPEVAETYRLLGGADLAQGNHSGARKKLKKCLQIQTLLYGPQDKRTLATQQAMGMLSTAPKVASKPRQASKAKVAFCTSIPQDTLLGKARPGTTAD
B2: Probable RNA-binding protein EIF1AD (Homo sapiens), Q8N9N8 (parent)
chain: MSQATKRKHVVKEVLGEHIVPSDQQQIVRVLRTPGNNLHEVETAQGQRFLVSMPSKYRKNIWIKRGDFLIVDPIEEGEKVKAEISFVLCKDHVRSLQKEGFWPEAFSEVAEKHNNRNRQTQPELPAEPQLSGEESSSEDDSDLFVNTNRRQYHESEEESEEEEAA
partner: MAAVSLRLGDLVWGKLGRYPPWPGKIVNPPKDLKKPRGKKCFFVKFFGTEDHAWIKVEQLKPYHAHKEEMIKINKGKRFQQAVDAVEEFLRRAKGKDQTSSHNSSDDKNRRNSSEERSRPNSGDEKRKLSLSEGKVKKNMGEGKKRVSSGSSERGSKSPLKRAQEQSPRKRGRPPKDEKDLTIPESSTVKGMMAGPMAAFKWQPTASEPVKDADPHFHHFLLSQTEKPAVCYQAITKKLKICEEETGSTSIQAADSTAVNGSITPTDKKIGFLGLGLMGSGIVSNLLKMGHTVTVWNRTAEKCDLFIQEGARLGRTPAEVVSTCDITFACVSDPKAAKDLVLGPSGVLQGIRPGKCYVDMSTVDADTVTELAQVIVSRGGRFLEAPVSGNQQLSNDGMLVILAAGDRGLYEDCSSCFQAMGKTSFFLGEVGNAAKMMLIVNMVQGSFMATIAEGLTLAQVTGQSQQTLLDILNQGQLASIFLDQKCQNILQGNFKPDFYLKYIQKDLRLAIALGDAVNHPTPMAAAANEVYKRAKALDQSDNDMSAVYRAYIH
B3: 2'-5'-oligoadenylate synthase 1 (Homo sapiens), P00973 (parent)
chain: MMDLRNTPAKSLDKFIEDYLLPDTCFRMQINHAIDIICGFLKERCFRGSSYPVCVSKVVKGGSSGKGTTLRGRSDADLVVFLSPLTTFQDQLNRRGEFIQEIRRQLEACQRERAFSVKFEVQAPRWGNPRALSFVLSSLQLGEGVEFDVLPAFDALGQLTGGYKPNPQIYVKLIEECTDLQKEGEFSTCFTELQRDFLKQRPTKLKSLIRLVKHWYQNCKKKLGKLPPQYALELLTVYAWERGSMKTHFNTAQGFRTVLELVINYQQLCIYWTKYYDFKNPIIEKYLRRQLTKPRPVILDPADPTGNLGGGDPKGWRQLAQEAEAWLNYPCFKNWDGSPVSSWILLAESNSADDETDDPRRYQKYGYIGTHEYPHFSHRPSTLQAASTPQAEEDWTCTIL
B4: Notch homolog 2 N-terminal-like protein A (Homo sapiens), Q7Z3S9 (parent)
chain: MCVTYHNGTGYCKCPEGFLGEYCQHRDPCEKNRCQNGGTCVAQAMLGKATCRCASGFTGEDCQYSTSHPCFVSRPCLNGGTCHMLSRDTYECTCQVGFTGKECQWTDACLSHPCANGSTCTTVANQFSCKCLTGFTGQKCETDVNECDIPGHCQHGGTCLNLPGSYQCQCLQGFTGQYCDSLYVPCAPSPCVNGGTCRQTGDFTFECNCLPETVRRGTELWERDREVWNGKEHDEN
partner: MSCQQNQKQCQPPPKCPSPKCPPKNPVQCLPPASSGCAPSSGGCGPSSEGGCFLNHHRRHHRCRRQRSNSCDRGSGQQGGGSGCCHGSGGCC
B5: Syntenin-1 (Homo sapiens), O00560 (parent)
chain: MSLYPSLEDLKVDKVIQAQTAFSANPANPAILSEASAPIPHDGNLYPRLYPELSQYMGLSLNEEEIRANVAVVSGAPLQGQLVARPSSINYMVAPVTGNDVGIRRAEIKQGIREVILCKDQDGKIGLRLKSIDNGIFVQLVQANSPASLVGLRFGDQVLQINGENCAGWSSDKAHKVLKQAFGEKITMTIRDRPFERTITMHKDSTGHVGFIFKNGKITSIVKDSSAARNGLLTEHNICEINGQNVIGLKDSQIADILSTSGTVVTITIMPAFIFEHIIKRMAPSIMKSLMDHTIPEV
partner: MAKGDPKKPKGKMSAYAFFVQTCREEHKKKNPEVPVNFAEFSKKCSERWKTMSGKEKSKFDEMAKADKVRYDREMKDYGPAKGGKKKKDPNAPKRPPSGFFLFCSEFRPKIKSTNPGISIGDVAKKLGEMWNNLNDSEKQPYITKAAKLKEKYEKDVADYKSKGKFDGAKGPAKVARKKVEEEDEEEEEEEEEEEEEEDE
B6: Proton-coupled zinc antiporter SLC30A2 (Homo sapiens), Q9BRI3 (parent)
chain: MEAKEKQHLLDARPAIRSYTGSLWQEGAGWIPLPRPGLDLQAIELAAQSNHHCHAQKGPDSHCDPKKGKAQRQLYVASAICLLFMIGEVVGGYLAHSLAVMTDAAHLLTDFASMLISLFSLWMSSRPATKTMNFGWQRAEILGALVSVLSIWVVTGVLVYLAVERLISGDYEIDGGTMLITSGCAVAVNIIMGLTLHQSGHGHSHGTTNQQEENPSVRAAFIHVIGDFMQSMGVLVAAYILYFKPEYKYVDPICTFVFSILVLGTTLTILRDVILVLMEGTPKGVDFTAVRDLLLSVEGVEALHSLHIWALTVAQPVLSVHIAIAQNTDAQAVLKTASSRLQGKFHFHTVTIQIEDYSEDMKDCQACQGPSD
partner: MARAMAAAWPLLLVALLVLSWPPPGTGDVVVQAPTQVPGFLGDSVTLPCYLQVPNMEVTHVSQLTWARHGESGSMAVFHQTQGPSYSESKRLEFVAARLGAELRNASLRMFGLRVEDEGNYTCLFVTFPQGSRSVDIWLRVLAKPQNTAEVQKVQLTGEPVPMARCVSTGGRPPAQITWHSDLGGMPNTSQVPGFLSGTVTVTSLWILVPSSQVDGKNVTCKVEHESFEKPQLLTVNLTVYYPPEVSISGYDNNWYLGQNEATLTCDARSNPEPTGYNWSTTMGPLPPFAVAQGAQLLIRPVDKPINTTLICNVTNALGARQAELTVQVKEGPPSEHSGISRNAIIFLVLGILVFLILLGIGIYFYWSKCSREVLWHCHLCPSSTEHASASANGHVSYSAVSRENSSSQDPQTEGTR
B7: Tetraspanin-5 (Homo sapiens), P62079 (parent)
chain: MSGKHYKGPEVSCCIKYFIFGFNVIFWFLGITFLGIGLWAWNEKGVLSNISSITDLGGFDPVWLFLVVGGVMFILGFAGCIGALRENTFLLKFFSVFLGIIFFLELTAGVLAFVFKDWIKDQLYFFINNNIRAYRDDIDLQNLIDFTQEYWQCCGAFGADDWNLNIYFNCTDSNASRERCGVPFSCCTKDPAEDVINTQCGYDARQKPEVDQQIVIYTKGCVPQFEKWLQDNLTIVAGIFIGIALLQIFGICLAQNLVSDIEAVRASW
partner: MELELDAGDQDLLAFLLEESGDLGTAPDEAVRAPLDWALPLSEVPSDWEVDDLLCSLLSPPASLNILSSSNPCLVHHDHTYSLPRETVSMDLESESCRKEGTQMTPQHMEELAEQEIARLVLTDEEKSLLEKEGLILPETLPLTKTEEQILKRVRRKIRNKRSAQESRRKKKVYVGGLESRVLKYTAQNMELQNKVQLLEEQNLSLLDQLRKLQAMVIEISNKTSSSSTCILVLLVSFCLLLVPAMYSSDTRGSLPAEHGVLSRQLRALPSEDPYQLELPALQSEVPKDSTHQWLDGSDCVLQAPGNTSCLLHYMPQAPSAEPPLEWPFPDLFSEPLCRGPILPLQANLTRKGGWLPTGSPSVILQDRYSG

Variants of: B1
Settings: with ttc23_human TTC23, Q5W5X9

effect of a mutation on the interaction	Variant
disrupting interaction strength	I236T
with no effect	R216K

Second part, the variant before the results:

Variant	effect of a mutation on the interaction
D30N	with no effect
Q161E	with no effect

Variants of: B2
Settings: with glyr1_human GLYR1, Q49A26

Variant	effect of a mutation on the interaction
R48C	with no effect

Variants of: B3
Settings: with actn1_human ACTN1, P12814
actn1_human ACTN1, P12814, sequence (P12814 whole entry): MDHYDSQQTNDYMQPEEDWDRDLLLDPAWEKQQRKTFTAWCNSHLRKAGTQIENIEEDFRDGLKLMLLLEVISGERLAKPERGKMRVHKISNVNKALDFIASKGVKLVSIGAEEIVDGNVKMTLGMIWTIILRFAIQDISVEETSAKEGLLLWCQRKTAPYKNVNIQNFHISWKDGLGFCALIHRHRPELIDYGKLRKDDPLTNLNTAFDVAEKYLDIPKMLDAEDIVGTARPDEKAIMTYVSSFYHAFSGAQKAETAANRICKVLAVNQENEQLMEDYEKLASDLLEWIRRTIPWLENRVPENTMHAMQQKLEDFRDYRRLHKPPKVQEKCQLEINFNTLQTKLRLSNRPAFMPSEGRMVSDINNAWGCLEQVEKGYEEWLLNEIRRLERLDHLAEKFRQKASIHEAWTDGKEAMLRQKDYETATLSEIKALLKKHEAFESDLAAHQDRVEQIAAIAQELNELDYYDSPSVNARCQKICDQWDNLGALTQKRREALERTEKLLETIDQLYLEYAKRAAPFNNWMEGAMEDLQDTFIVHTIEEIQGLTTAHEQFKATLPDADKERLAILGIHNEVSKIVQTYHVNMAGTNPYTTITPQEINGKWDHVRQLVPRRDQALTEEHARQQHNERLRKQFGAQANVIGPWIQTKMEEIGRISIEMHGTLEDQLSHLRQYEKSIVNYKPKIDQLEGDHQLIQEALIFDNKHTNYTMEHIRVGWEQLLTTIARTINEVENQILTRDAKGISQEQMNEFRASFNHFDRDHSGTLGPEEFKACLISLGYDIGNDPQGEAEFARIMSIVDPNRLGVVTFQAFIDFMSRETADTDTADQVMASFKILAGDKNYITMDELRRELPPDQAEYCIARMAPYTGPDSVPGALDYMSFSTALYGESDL

Variant	effect of a mutation on the interaction
L327P	disrupting interaction strength

Variants of: B4
Settings: with lce3e_human LCE3E

Variant	effect of a mutation on the interaction
A115T	with no effect
R74Q	with no effect

Variants of: B5
Settings: with hmgb3_human HMGB3, O15347

Variant	effect of a mutation on the interaction
K124R	with no effect

Variants of: B6
Settings: with pvr_human PVR

Variant	effect of a mutation on the interaction
T181M	with no effect

Variants of: B7
Settings: with creb3_human CREB3, O43889

Variant	effect of a mutation on the interaction
T218M	with no effect
